This is an account of results in patent US20250277030A1 (Zymeworks, published 2025).

The labels stand for the following.
T1: human sodium-dependent phosphate transporter 2B (NaPi2b) (human, UniProt O95436 1-690)
T1 sequence: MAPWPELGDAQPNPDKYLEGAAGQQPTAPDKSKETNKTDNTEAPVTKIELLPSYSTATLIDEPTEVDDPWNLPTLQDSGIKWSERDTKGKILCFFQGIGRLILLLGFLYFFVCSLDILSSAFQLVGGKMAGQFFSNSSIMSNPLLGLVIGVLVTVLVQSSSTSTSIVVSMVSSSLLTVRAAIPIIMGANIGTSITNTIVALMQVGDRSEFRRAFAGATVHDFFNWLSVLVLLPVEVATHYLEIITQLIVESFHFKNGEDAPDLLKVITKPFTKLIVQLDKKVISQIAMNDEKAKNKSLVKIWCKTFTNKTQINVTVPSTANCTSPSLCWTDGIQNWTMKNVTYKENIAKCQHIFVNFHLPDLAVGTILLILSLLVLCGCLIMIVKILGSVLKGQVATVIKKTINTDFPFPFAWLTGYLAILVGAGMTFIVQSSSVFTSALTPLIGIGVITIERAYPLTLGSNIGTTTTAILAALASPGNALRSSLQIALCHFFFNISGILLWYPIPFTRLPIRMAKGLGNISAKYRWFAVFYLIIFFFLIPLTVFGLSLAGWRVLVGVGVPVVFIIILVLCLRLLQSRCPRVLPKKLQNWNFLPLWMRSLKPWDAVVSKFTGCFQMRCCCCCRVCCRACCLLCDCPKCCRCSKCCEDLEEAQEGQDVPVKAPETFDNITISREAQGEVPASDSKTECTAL

B1: v23855-DL3, v23855 conjugated to MC-VC-PABC-MMAE (DAR 4) (antibody, human IgG1, kappa, V domains shown)
VH: QAYLQQSGAELVRPGASVKMSCKASGFTFTSYNVHWVKQTPRQGLEWIAAISPGNGDLSYNQRFKDKATLTVDRSSSTAYMQLSGLTSEDSAVYFCARGRTGMGAVDYWGQGTSVTVSS
VL: DVQMTQTASSLSASLGDRVTISCRASQDVYSYLNWYQQKPHGTVKLLIYYTSRLQSGVPSRFTGSGSGTDYSLTISNLEPEDIATYYCQQYNIFPWTFGGGTKLEIKR
modifications: MC-VC-PABC-MMAE (DL3) on cysteines freed by reduction; positions not given; MC-VC-PABC-MMAE (DL3) on cysteines freed by reduction; positions not given; DAR 4 for the whole antibody
B2: v18992-DL1, MX35 conjugated to MC-GGFG-AM-DXd1 (DAR 8) (antibody, human IgG1, kappa)
heavy 1: GQVQLVQSGAEVVKPGASVKMSCKASGYTFTGYNIHWVKQAPGQGLEWIGAIYPGNGDTSYKQKFRGRATLTADTSTSTVYMELSSLRSEDSAVYYCARGETARATFAYWGQGTLVTVSSASTKGPSVFPLAPSSKSTSGGTAALGCLVKDYFPEPVTVSWNSGALTSGVHTFPAVLQSSGLYSLSSVVTVPSSSLGTQTYICNVNHKPSNTKVDKKVEPKSCDKTHTCPPCPAPELLGGPSVFLFPPKPKDTLMISRTPEVTCVVVDVSHEDPEVKFNWYVDGVEVHNAKTKPREEQYNSTYRVVSVLTVLHQDWLNGKEYKCKVSNKALPAPIEKTISKAKGQPREPQVYVYPPSRDELTKNQVSLTCLVKGFYPSDIAVEWESNGQPENNYKTTPPVLDSDGSFALVSKLTVDKSRWQQGNVFSCSVMHEALHNHYTQKSLSLSPG
heavy 2: not shown
light: GDIQMTQSPSSLSASVGDRVTITCSASQDIGNFLNWYQQKPGKTVKVLIYYTSSLYSGVPSRFSGSGSGTDYTLTISSLQPEDFATYYCQQYSKLPLTFGQGTKLELKRTVAAPSVFIFPPSDEQLKSGTASVVCLLNNFYPREAKVQWKVDNALQSGNSQESVTEQDSKDSTYSLSSTLTLSKADYEKHKVYACEVTHQGLSSPVTKSFNRGEC
modifications: MC-GGFG-AM-DXd1 (DL1) on cysteines freed by reduction; positions not given; MC-GGFG-AM-DXd1 (DL1) on cysteines freed by reduction; positions not given; DAR 8 for the whole antibody
B3: v18993-DL2, lifastuzumab conjugated to MT-VC-Compound 1 (DAR 4) (antibody, human IgG1, kappa)
heavy 1: GEVQLVESGGGLVQPGGSLRLSCAASGFSFSDFAMSWVRQAPGKGLEWVATIGRVAFHTYYPDSMKGRFTISRDNSKNTLYLQMNSLRAEDTAVYYCARHRGFDVGHFDFWGQGTLVTVSSASTKGPSVFPLAPSSKSTSGGTAALGCLVKDYFPEPVTVSWNSGALTSGVHTFPAVLQSSGLYSLSSVVTVPSSSLGTQTYICNVNHKPSNTKVDKKVEPKSCDKTHTCPPCPAPELLGGPSVFLFPPKPKDTLMISRTPEVTCVVVDVSHEDPEVKFNWYVDGVEVHNAKTKPREEQYNSTYRVVSVLTVLHQDWLNGKEYKCKVSNKALPAPIEKTISKAKGQPREPQVYVYPPSRDELTKNQVSLTCLVKGFYPSDIAVEWESNGQPENNYKTTPPVLDSDGSFALVSKLTVDKSRWQQGNVFSCSVMHEALHNHYTQKSLSLSPG
heavy 2: not shown
light: GDIQMTQSPSSLSASVGDRVTITCRSSETLVHSSGNTYLEWYQQKPGKAPKLLIYRVSNRFSGVPSRFSGSGSGTDFTLTISSLQPEDFATYYCFQGSFNPLTFGQGTKVEIKRTVAAPSVFIFPPSDEQLKSGTASVVCLLNNFYPREAKVQWKVDNALQSGNSQESVTEQDSKDSTYSLSSTLTLSKADYEKHKVYACEVTHQGLSSPVTKSFNRGEC
modifications: MT-VC-Compound 1 (DL2) on cysteines freed by reduction; positions not given; MT-VC-Compound 1 (DL2) on cysteines freed by reduction; positions not given; DAR 4 for the whole antibody
notes: also called Lifa Compound 1 ADC; lifastuzumab-DL2 ADC
B4: v18993-DL1, lifastuzumab conjugated to MC-GGFG-AM-DXd1 (DAR 8) (antibody, human IgG1, kappa)
heavy 1: B3 heavy 1
heavy 2: not shown
light: B3 light
modifications: MC-GGFG-AM-DXd1 (DL1) on cysteines freed by reduction; positions not given; MC-GGFG-AM-DXd1 (DL1) on cysteines freed by reduction; positions not given; DAR 8 for the whole antibody
B5: v29455 humanized anti-NaPi2b antibody (H2L2) (antibody, human IgG1, kappa, V domains shown)
VH: QVQLVQSGAEVKKPGASVKVSCKASGFTFTSYNVHWVRQAPGQGLEWIAAISPGNGDLSYAQKFQGRVTMTVDTSTSTVYMELSSLRSEDTAVYYCARGRTGMGAVDYWGQGTLVTVSS
VL: DVQMTQSPSSLSASVGDRVTITCRASQDVYSYLNWYQQKPGKAVKLLIYYTSRLQSGVPSRFSGSGSGTDYTLTISSLQPEDFATYYCQQYNIFPWTFGQGTKLEIKR
B6: v29458 humanized anti-NaPi2b antibody (H3L1) (antibody, human IgG1, kappa, V domains shown)
VH: B5 VH with V20M, V68A, M70L, V79A
VL: B5 VL with V2I, V44P, Y71F
B7: v29450 humanized anti-NaPi2b antibody (H3L3) (antibody, human IgG1, kappa, V domains shown)
VH: B5 VH with V20M, V68A, M70L, V79A
VL: B5 VL with F83I
B8: v29454 humanized anti-NaPi2b antibody (H3L2) (antibody, human IgG1, kappa, V domains shown)
VH: B5 VH with V20M, V68A, M70L, V79A
VL: B5 VL
B9: v29459 humanized anti-NaPi2b antibody (H2L1) (antibody, human IgG1, kappa, V domains shown)
VH: B5 VH
VL: B5 VL with V2I, V44P, Y71F
B10: v29457 humanized anti-NaPi2b antibody (H4L1) (antibody, human IgG1, kappa, V domains shown)
VH: B5 VH with V20M, V68A, M70L, T74R, V79A
VL: B5 VL with V2I, V44P, Y71F
B11: v29449 humanized anti-NaPi2b antibody (H4L3) (antibody, human IgG1, kappa, V domains shown)
VH: B5 VH with V20M, V68A, M70L, T74R, V79A
VL: B5 VL with F83I
notes: Full-size IgG1/kappa
B12: v29453 humanized anti-NaPi2b antibody (H4L2) (antibody, human IgG1, kappa, V domains shown)
VH: B5 VH with V20M, V68A, M70L, T74R, V79A
VL: B5 VL
B13: v29451 humanized anti-NaPi2b antibody (H2L3) (antibody, human IgG1, kappa, V domains shown)
VH: B5 VH
VL: B5 VL with F83I
B14: v29460 humanized anti-NaPi2b antibody (H1L1) (antibody, human IgG1, kappa, V domains shown)
VH: B5 VH with I48M, A49G, V72R
VL: B5 VL with V2I, V44P, Y71F

Substitutions are numbered along the chain they refer to.

In one test the target is T1, human sodium-dependent phosphate …. In words: cell-based or functional assay.
As for B1, the “In vitro cytotoxicity EC50 (nM), HCC-78” value worked out at 0.2 nM; the “In vitro cytotoxicity EC50 (nM), IGROV-1” value worked out at 0.18 nM; the “In vitro cytotoxicity EC50 (nM), OVCAR-3” value amounted to 0.05 nM.

Regarding B2, the “In vitro cytotoxicity EC50 (nM), HCC-78” value stood at 0.68 nM and the “In vitro cytotoxicity EC50 (nM), IGROV-1” value was 1.04 nM.

Regarding B3, the “In vitro cytotoxicity EC50 (nM), HCC-78” value was 1.77 nM; the “In vitro cytotoxicity EC50 (nM), IGROV-1” value stood at 2.12 nM; the “In vitro cytotoxicity EC50 (nM), OVCAR-3” value was 0.49 nM.

As for B4, the “In vitro cytotoxicity EC50 (nM), HCC-78” value came to 5.45 nM and the “In vitro cytotoxicity EC50 (nM), IGROV-1” value was found to be 3.45 nM.

A further test has the same target. The test is described as follows: flow cytometry, IGROV-1 cells (endogenous NaPi2b), 24 h at 4 °C; apparent Kd. The protocol: (§1) IGROV-1 cells express endogenous NaPi2b at a high level.
(§2) Briefly, cells were seeded at 50,000 cells/well in conical-bottom 96-well plates and treated with test antibody for 24 hours at 4° C. to prevent internalization. […] Following incubation, cells were washed and stained with anti-Human IgG Fc AF647 conjugate (Jackson Immuno Research Labs, West Grove, PA; Cat. No. 109-605-098) at 4° C. for 30 min. Following incubation and washing, fluorescence was detected by flow cytometry on a BD LSRFortessa™ Cell Analyzer (BD Biosciences, Franklin Lake, NJ) with 1,000 minimum events collected per well. The AF647/APC-A GeoMean (fluorescence signal geometric mean, proportional to anti-Human AF647 binding) was calculated for the live cell population using FlowJo™ Version 10.8.1 (BD Biosciences, Franklin Lake, NJ) and plotted for each test antibody using GraphPad Prism Version 9 (GraphPad Software, San Diego, CA).
For the molecule B5, the Kd was 1.18 nM.

Turning to B6, the Kd came out at 1.39 nM.

On to B7, for which the Kd is 0.96 nM.

With B8, the Kd was 0.92 nM.

Regarding B9, the Kd worked out at 1.61 nM.

With B10, the Kd came to 1.73 nM.

Take B11: the Kd is 0.79 nM.

B12: the Kd was 0.82 nM.

In the case of B13, the Kd is 1.49 nM.

For B14, the Kd turned out to be 1.67 nM.

As to B3, the Kd is 3 nM.

The next test shares this target. In words: flow cytometry, IGROV-1 cells (endogenous NaPi2b), 24 h at 4 °C. The method, then:
as §1, §2
In the case of B5, the “Bmax (MFI)” value amounted to 41900 MFI.

As for B6, the “Bmax (MFI)” value worked out at 40800 MFI.

Consider B7, for which the “Bmax (MFI)” value stood at 43800 MFI.

On to B8, for which the “Bmax (MFI)” value is 42300 MFI.

Consider B9, for which the “Bmax (MFI)” value was found to be 40900 MFI.

As for B10, the “Bmax (MFI)” value turned out to be 44500 MFI.

Take B11: the “Bmax (MFI)” value stood at 44500 MFI.

For the molecule B12, the “Bmax (MFI)” value came to 44500 MFI.

For the molecule B13, the “Bmax (MFI)” value worked out at 46200 MFI.

In the case of B14, the “Bmax (MFI)” value is 40100 MFI.

Regarding B3, the “Bmax (MFI)” value came to 39800 MFI.
